Data on two molecules can be found in paper PMC2737688.

Test [1] concerns the target BK α subunit (mSlo1) pseudo-wild-type with N200C (S3-S4 loop) (mouse). Put plainly: cross-linking.
Test [2] deals with BK α subunit (mSlo1) pseudo-wild-type with K296C (S6 flank) (mouse). Put plainly: cross-linking.

Substitutions are numbered along the chain they refer to. Numbers in names are those of the source.

B1: BK β4 subunit pseudo-wild-type with A43C (TM1 flank), 3X FLAG (natural protein)
chain: MAKLRVAYEYTEAEDKSIRLGLFLIISGVVSLFIFGFAWLSPCLQDLQATEANCTVLSVQQIGEVFECTFTCGADCRGTSQYPCVQVYVNNSESNSRALLHSDEHQLLTNPKCSYIPPCKRENQKNLESVMNWQQYWKDEIGSQPFTCYFNQHQRPDDVLLHRTHDEIVLLHAFLWPLVTFVVGVLIVVLTICAKSLAVKAEAMKKRKFS
On to B1, for which, in test [1], the extent of disulfide crosslinking came out at 30%.

B2: BK β4 subunit pseudo-wild-type with V169C (TM2 flank), 3X FLAG (natural protein)
chain: B1 chain with C43A, V169C
B2: the extent of disulfide crosslinking in test [2] was under 30%.
